The data set addresses His-MAFB (UniProt Q9Y5Q3 1-323). Put plainly: EMSA.

Here are results for two molecules from publication PMC3050627.

Sequence of His-MAFB (Q9Y5Q3 whole entry): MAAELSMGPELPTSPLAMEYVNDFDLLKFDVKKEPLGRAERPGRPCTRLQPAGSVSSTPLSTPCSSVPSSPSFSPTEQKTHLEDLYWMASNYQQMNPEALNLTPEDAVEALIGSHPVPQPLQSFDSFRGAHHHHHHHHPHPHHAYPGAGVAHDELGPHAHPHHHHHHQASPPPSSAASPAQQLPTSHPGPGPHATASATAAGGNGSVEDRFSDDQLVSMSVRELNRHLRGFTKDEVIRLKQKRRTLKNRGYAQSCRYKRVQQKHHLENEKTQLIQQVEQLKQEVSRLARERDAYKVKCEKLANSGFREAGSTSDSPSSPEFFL

B1: MARE (dsDNA)
DNA 1: CATTTCTGCTGACTCAGCAACTTTA
DNA 2: TAAAGTTGCTGAGTCAGCAGAAATG
Take B1: the binding result was “binds”.

B2: P31 (PRDIII-PRDI) (dsDNA)
DNA 1: GAAAACTGAAAGGGAGAAGTGAAAGTG
DNA 2: CACTTTCACTTCTCCCTTTCAGTTTTC
On to B2, for which the binding result was “no binding”.
